Source: the supplement of paper PMC9170038

Tests used:
MS2 coat protein [1] = assay: apparent KD of MS2 coat protein, switch OFF state (with FMN for OFF switches, without FMN for ON switches); designed switch direction (-1 OFF switch, 1 ON switch): -1; higher = weaker reporter binding; settings: FMN input: 0 or 200 uM; Eterna round: R93 (includes R88 designs)
How it was run: (§1)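 Values are apparent KD, taken as the median for each design of fits to normalised binding curves from individual clusters. The designed RNA switches were transcribed on-chip from Illumina sequencing clusters and exposed to SNAP-549-labelled MS2 coat protein at twofold increasing amounts from 0.7 or 1.5 nM to 3 µM. Titration used 100 mM Tris-HCl pH 7.5, 80 mM KCl and 4 mM MgCl2, without or with constant ligand.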

MS2 coat protein [2] = assay: apparent KD of MS2 coat protein, switch ON state; designed switch direction (-1 OFF switch, 1 ON switch): -1; higher = weaker reporter binding; settings: FMN input: 0 or 200 uM; Eterna round: R93 (includes R88 designs)
How it was run: as §1

Row | Sequence | apparent KD of MS2 coat protein (MS2 coat protein [1]) [nM] | apparent KD of MS2 coat protein (MS2 coat protein [2]) [nM]
1 | GAAAAGUGAGGAUAUGUCAAAAGUCACAAAAGUGACAAAAGACAGAAGGCACAUGAGGAUCACCCAUGUGGAAG [Mat - Exaclusion 4 - Eli mod - D52] | 41.1 | 33.8
2 | AUCUUGUCAGGAUAUCGUACAAUAUGGAAAACAUAGAGGUACGAGAAGGGACAUGAGGAUCACCCAUGUAAAAC [May 98] | 73.7 | 59.5
3 | AGGAAACAUGAGGAUCACCCAUGUAAGGAUAUGUGAAAGAAAAGAAAAGAAAGAAGAAACAGAAGGUACAAGAA [Qa'a] | 42.4 | 46.3
4 | AAAAAACAUGAGGAUCACCCAUGUGAGGAUAUCGGAGGAGGAGGAGGAGGAGGAGGAGCGAGAAGGUACAAAAA [salish99-Ex1-04] | 31.5 | 14.4
5 | AAAAAACAUGAGGAUCACCCAUGUAAGGAUAUGCCAACAAACAAACAAACAAAAAAAAGCAGAAGGUACAAAAA [Amethyst 70] | 24.1 | 19.8
6 | AAGAACAUAGGAUAUACAAAAUAAAAGAAAAGAAAGAAAGAACAUGAGGAUCACCCAUGUAGAAGGAUGAAGAA [Khakaure Senusret III] | 24.4 | 39
7 | AACACACAUGAGGAUCACCCAUGUAAGGAUAUGCGAGCAAGAAGAAAGAACAGAAAAAGCAGAAGGUACACACA [Amethyst 75] | 29.5 | 29.6
8 | AUAAACGGAGGAUAUACAUGAGGAUCACCCAUGUAAAUAAAUAAAAGUUCCUCAAUAAGUAGAAGGUCGAAUAA [JR_Exc003_Sub011] | 13 | 12.8
9 | AAAAGUAGAGGAUAUACAUGAGGAUCACCCAUGUAGAAAGGAAGUGUAUAUAUGGCAUGUAGAAGGCUACAUGA [Banishment 8 - Jieux - Exclusion 3] | 34.2 | 27.4
10 | AACAGUACAGGAUAUACAUGAGGAUCACCCAUGUGAUAUAAAUAAAACAAAAAUAAAAGUAGAAGGGUACUGGA [Ruby 44] | 70.8 | 25.7
11 | GAUAGGCGAGGAUAUACAUGAGGAUCACCCAUGUAAGUAAGCCUGGCUGAAACUGAAUGUAGAAGGCGCACAUU [Ex3Try2_Neo] | 39.6 | 16.2
12 | CUCUUGUGAGGAUAUAGAAGAAAAGAAGAGAAAGAAAAGAACUAGAAGGCACAUGAGGAUCACCCAUGUAAGAA [EteRNA is fun!] | 39.9 | 34.3
13 | AAUAAACAUGAGGAUCACCCAUGUCAGGAUAUCCUAAAUAAAAAAAUAUAAAGAAGAAGGAGAAGGGACUAAAA [Mystem Exclusion 1] | 53.5 | 47.2
14 | AAAAAACAUGAGGAUCACCCAUGUAAGGAUAUGCAAAAUAAAAGAAAUAAAAAGAAAAGCAGAAGGUAUAUGAA [JL wbt mod 7] | 26.7 | 32.6
15 | AAGAAACAUGAGGAUCACCCAUGUGAGGAUAUCAAAAAGAAAAGAAAAGAAAGAAGAAUGAGAAGGCACAAAGG [Mery—] | 32.5 | 30.5
16 | AAGGGACAUGAGGAUCACCCAUGUCAGGAUAUGAUGCGAAUAAAGAAAGAAUAAAGCAUCAGAAGGGACAAAAA [Mat - Exclusion 1 - Eli mod - D63] | 55.7 | 35.6
17 | UUUAUGUGAGGAUAUCAGUAGUAAAAAAAUAAAAUUACUACUGAGAAGGCACAUGAGGAUCACCCAUGUGAAAA [EX4 340: Super Stable 40] | 161 | 61.9
18 | AGCAGUACAGGAUAUACAUGAGGAUCACCCAUGUGAAAAGAAAGUGGCGUACCACAAAGUAGAAGGGUACUGCA [Mat - Exclusion 3 - JL mod - D33] | 180 | 27.9
19 | GGUUGGCGAGGAUAUACAUGAGGAUCACCCAUGUGAGAGAAAAAAGUGAGAAAGAUAAGUAGAAGGCGCUGACG [salish99-ex3-39] | 169 | 80.3
20 | AGAAAUACAGGAUAUACAUGGGAAAAAAAAAAAAAAAUUCUACAUGAGGAUCACCCAUGUAGAAGGGUAUUUCA [Ex2 Design 170: Random 1] | 32 | 48.2
21 | CUCUUGUCAGGAUAUCGAAGAAAAGAAAAGAAAGAAAAGAACGAGAAGGGACAUGAGGAUCACCCAUGUAAGAA [EteRNA is fun!] | 67.6 | 61.5
22 | AACAGUACAGGAUAUACAUGAGGAUCACCCAUGUGAUUAUCAAGUGCCGUAGCACGAAGUAGAAGGGUACUGGA | 243 | 60.3
23 | AAGAAGGCAGGAUAUACAUGAGGAUCACCCAUGUAAAAGAAAGAAGGGAAAGAGAAAAGUAGAAGGGCCAAGAA [Hedjkheperre-setpenre Takelot II] | 68.4 | 43.8

Row | Sequence | apparent KD of MS2 coat protein (MS2 coat protein [1]) [nM] | apparent KD of MS2 coat protein (MS2 coat protein [2]) [nM]
24 | AUGAGAGCAGGAUAUGCAGGUGUGCCGGAAGAAAGAAGAAGACAUGAGGAUCACCCAUGUAGAAGGGCUAGCCC [Bibidi] | 18.5 | 30
25 | AUCUAGUCAGGAUAUGACUACAUAAAAAAAAAAAAAUGUAGUCAGAAGGGACAUGAGGAUCACCCAUGUACUAA [HSL_Exclusion 4 64% 1] | 24.8 | 37.3
26 | AUAAGUCGAGGAUAUACGAAAAGCUAGCGAAAGCUAGCGGGACAUGAGGAUCACCCAUGUAGAAGGCGACAAUA [Tetraloop hairpin BlockHead... 61% 5] | 57 | 28.4
27 | AAAAAGUGAGGAUAUACGAGGAGAAACAACAAACAAACAAAACAUGAGGAUCACCCAUGUAGAAGGCACAAAAA [Ex 2 sub 3] | 28.6 | 22.4
28 | AGUUGGCGAGGAUAUACAUGAGGAUCACCCAUGUGAGAGAAAAAAGUGAGAAAGAAAAGUAGAAGGCGCUGACC [salish99-ex3-07] | 103 | 58.3
29 | AAGAAUGCAGGAUAUACAAAAUAAAAGAAAAGAAAGAAAGAACAUGAGGAUCACCCAUGUAGAAGGGCGAAGAA [Sewadjkare Hori] | 34.4 | 44.4
30 | AACAAACAUGAGGAUCACCCAUGUCAGGAUAUGCACAAACAAACAAACAAACAAGCAAGCAGAAGGGACACAAC [Amethyst 89] | 27.6 | 13.7
31 | AAAAAGGCAGGAUAUACAUGAGGAUCACCCAUGUAAAAAAAAAAAAAGGGAAAAAAAAGUAGAAGGGCCAAAAA [Khamudi] | 48.5 | 35.8
32 | ACGUAGUCAGGAUAUACGAACAUGUCAAAAGACGUGAAGGGACAUGAGGAUCACCCAUGUAGAAGGGACUACGA [Mat - Exclusion 2 - JL mod - D5] | 129 | 43.1
33 | AGUUGGCGAGGAUAUACAUGAGGAUCACCCAUGUAAAAUAAAUAAAAAAUAGGGAAAAGUAGAAGGCGCUGACA [73%, Moding Norbert Elias, 13] | 96.3 | 48.4
34 | AACGCACAUGAGGAUCACCCAUGUCAGGAUAUCGUGGCGGGAAAAACCGGGAAACGCACGAGAAGGGACAAAAA [EX1 Malc#18 Mod 14 - Jieux - Exclusion 1] | 42.2 | 47.6
35 | GAAAGGGCAGGAUAUGCAGAGAGAGAGAGAGAGAGAAAAAAACAUGAGGAUCACCCAUGUAGAAGGGCCGAAAG [salish99-ex2-06] | 52.4 | 38.5
36 | AAUUCACAUGAGGAUCACCCAUGUAAGGAUAUCGAAAUAAAACUAAACAAAAAACAAACGAGAAGGUACAAAAA [Exclusion 1 design 6] | 23.3 | 25
37 | AAACGUAGAGGAUAUACGAAAAGAUUACGAAAGUAAUCGGGACAUGAGGAUCACCCAUGUAGAAGGCUACGAAA [Mod2 of Meechl 64% 3] | 61 | 27.1
38 | AAUAAGAGAGGAUAUACUAAAGAAAUGAAAAGAAAUAAAGAACAUGAGGAUCACCCAUGUAGAAGGCUCAAUAA [Bebnum] | 24.6 | 24.4
39 | CUGCAGUAAGGAUAUACAUGAGGAUCACCCAUGUAGGAACUUACAGAACGAAACGCAUGUAGAAGGUACCAGAA [Enususge] | 14.3 | 14.2
40 | AAAAAGUGAGGAUAUGUACGAAAAAAUAAAAAAAUAAAAGUACAGAAGGCACAUGAGGAUCACCCAUGUGAAAA [EX4 397: Minimal 10] | 22.9 | 27.4
41 | AACAGUACAGGAUAUACAUGAGGAUCACCCAUGUGAAGAUUAAGAAGAAACCCACAAAGUAGAAGGGUACUGGA [Ruby 92] | 47.4 | 29
42 | AAAGGACGAGGAUAUACAUGAGGAUCACCCAUGUAAAAAACAUAAAAAAAGAAAUUAUGUAGAAGGCGUCCAAA [69%, Moding Meechl, 4] | 17.8 | 18.1
43 | AAAGCACGAGGAUAUACAUGAGGAUCACCCAUGUAUAAAAAAAAAAAAAAAUCCUCAUGUAGAAGGCGUGCAAA | 9.78 | 17.4
44 | AAAAAGUAAGGAUAUAUAAAAAUAAAAAAUUAUGAUAAAAAACAUGAGGAUCACCCAUGUAGAAGGUACGAAAA [AJ 2] | 25.6 | 26.2
45 | AGGAAACAUGAGGAUCACCCAUGUAAGGAUAUGUGAAAGAAAAGAAAAGAAAGAAGAAGCAGAAGGUACAAGAA [Anedjib] | 47.2 | 34.9
